The values that follow come from publication doi:10.1101/2025.05.11.653314.

The target in the experiment is U. parvum Smc (Ureaplasma parvum). Description: cross-linking.

Broadly, the stoichiometry N is a count of units in the complex or per binding partner.

U. parvum Smc (enzyme) yielded a stoichiometry N of 2.
